The chains are these.
B1: ETP-mAb4 (antibody, V domains shown)
VH: SSRVKESGGDLVKPGASLTLTCKASGFSFSSGYYICWVRQAPGKGLEWIACIYGGNNNPYYANWVNGRFTTSKTSSTTVTLQMTNLTGADTATYFCARKDINIGGAYELWGPGTLVTISS
VL: ELVMTQTPASVSEPVGGTVTINCQASQSISSSYLSWYQQKPGQPPKLLIYKASTLASGVPSRFKGSGSGTQFSLTISDLECADAATYYCQYSDWANSYGNAFGGGTEVVVK
notes: Rabbit monoclonal; also called parental rabbit ETPmAb4
B2: ETP-mAb10 (antibody, V domains shown)
VH: QSLEESGGGLVQPEGSLTLTCTASGFSFSRGDYMCWVRQAPGKGLEWIGWIDVGRDNDSYYATWAKGRFSISKTSSTTVTLQMTSLTVADTATYFCARDLGFDTNLWGPGTLVTVSS
VL: ELDMTQTPASVSAAVGGTVTINCQASQNINSWLSWYQQKPGQPPKLLIYQASKLASGVPSRLKGSGSGTQFSLTISDLECADGATYYCQSYDYRSSGNGGNVFGGGTEVEIK
notes: Rabbit monoclonal
B3: ETP-mAb72 (antibody, V domains shown)
VH: B2 VH with M34V, R55S, D56V, N57I, D58E, S70T
VL: ELVMTQTPASVEAAVGGTVTINCQASESISIYLNWYQQKPGQPPKLLIYQASKLASGVPSRFKGSGSGTEFTLTISDLECADAATYYCQSHDYRIGRSDCNVFGGGTNVEIK
notes: Rabbit monoclonal
B4: ETP-mAb11 (antibody, V domains shown)
VH: QSVKESEGGLVQPEGSLTLTCTASGFSFSSSYYMCWVRQAPGKGLEWIGCIYLGNNENTAYTSWAKGRFTISKTSSTTVTLQMTSLTAADTTTYFCARDTSGGSDYYFGLWGPGTLVTISS
VL: ELDLTQTPASVEVAVGGTVTIKCQASHRIKTYLAWYQQKPGQPPKLLIYGASTLASGVPSRFKGSGSGTQFTLTISGVECADAATYYCQQGYSDGNVDNVFGGGTEVEIK
notes: Rabbit monoclonal
B5: ETP-mAb6 (antibody, V domains shown)
VH: QSVKESEGGLVQPEGSLTLTCTASGFSFSNSDYMCWVRQAPGKGLEWIGWIDLVGNTNSYYASWAKGRFTISKTSSTTVALQMTSLTVADTATYFCARDLGFDTNLWGPGTLVTVSS
VL: ELDLTQTPASVSAAVGGTVTINCQASQNINSWLSWYQQKPGQRPKLLIYQASKLPSGVPSRFKGSGSGTQFTLTISDLECADAATYYCQSHDYRTTGSYGNVFGGGTEVEIK
notes: Rabbit monoclonal
B6: ETP-mAb1 (antibody, V domains shown)
VH: QSVKESGGDLVKPGASLTLTCTASGIDFSAGYYMCWVRQAPGKGLELIACIYAGRSLNTFYASWAKGRFTISRASSTTVTLAMTSLTAADTATYFCARDGASSGYYFKLWGPGTLVTISS
VL: ELDMTQTPASVEVAVGGTVTIKCQASQSIGSNLAWYQQKPGQRPNVLIYDASNLASGVSSRFKGSGSGTQFTLTISGGECADAATYYCQQGYSDNYLDNAFGGGTEVVVK
notes: Rabbit monoclonal
B7: ETP-mAb2 (antibody, V domains shown)
VH: EQSLEESEGGLVQPEGSLTLTCTASGFSFSRSDYMCWVRQAPGKGLEWIGWIDPGYSDTYYASWAQGRTTISKASSTTVTLQMTSLTVADTATYFCARDLGFDSNLWGPGTLVTISS
VL: ELDLTQTPASVSEPVGGTVTIKCQASQSINSYLSWYQQKPGQPPKLLIYQASKLASGVPSRFKGSGSGTQFTLTISDLECADAATYYCQSYDYRISGSDGNVFGGGTNVEIK
notes: Rabbit monoclonal
B8: ETP-mAb4.1 (humanized ETP-hMab4) (antibody, human IgG1, V domains shown)
VH: EVQLLESGGGLVQPGGSLRLSCAASGFSFSSGYYICWVRQAPGKGLEWIACIYGGNNNPYYANWVNGRFTISRDNSKNTLYLQMNSLRAEDTAVYYCARKDINIGGAYELWGQGTLVTVSS
VL: DIQMTQSPSSLSASVGDRVTITCQASQSISSSYLSWYQQKPGKAPKLLIYKASTLASGVPSRFSGSGSGTDFTLTISSLQPEDFATYYCQYSDWANSYGNAFGGGTKVEIK
notes: Humanized; tied by the number 4.1; also called ENT-hMab4.1
B9: ETP-mAb4.5 (humanized ETP-hMab4) (antibody, human IgG1, V domains shown)
VH: B8 VH with S28T, N57S
VL: B8 VL
notes: also called ENT-hMab4.5
B10: ETP-mAb4.4 (humanized ETP-hMab4) (antibody, human IgG1, V domains shown)
VH: B8 VH with I71T
VL: B8 VL
notes: also called ENT-hMab4.4
B11: ETP-mAb4.2 (humanized ETP-hMab4) (antibody, human IgG1, V domains shown)
VH: B8 VH with N57S
VL: B8 VL
notes: also called ENT-hMab4.2

Substitutions are numbered along the chain they refer to.

For one assay, the target named is T1, recombinant human endotrophin (77 amino acids at the carboxy-terminal of the COL6α3 chain, HEK293-expressed, … (human, UniProt P12111 3101-3177)).
T1 construct: the His-tag was removed by enterokinase, leaving the 77 amino acid endotrophin free of tags; also called ETP; recombinant endotrophin protein
T1 sequence (P12111 3101-3177 limits assumed): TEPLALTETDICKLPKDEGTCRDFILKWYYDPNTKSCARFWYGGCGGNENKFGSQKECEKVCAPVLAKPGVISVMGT
Briefly: BLI (Octet RED96).
As usually defined, the Kd is a measure of binding affinity in units of concentration. Consider B1, for which the Kd stood at 1.62 nM.

The target of a further assay is T1, recombinant human endotrophin (77 amino …). Briefly: ELISA titration on plate-coated recombinant endotrophin, 4-parameter fit. The protocol:
(§1) Antibody-antigen ELISA Binding Assay. Corning 96-well EIA/RIA plates were coated overnight at 4° C. with HEK293 expressed recombinant endotrophin (1 μg/mL) and blocked for 2 hr at 37° C. with 5% non-fat milk. After washing with PBST for 3 times, 100 μL of serial diluted anti-endotrophin antibodies were added and incubated for 45 min at 37° C. Subsequently, the plates were washed with PBST and incubated for 30 min with anti-rabbit or anti-human F(ab′)2 HRP-conjugated antibody (Jackson ImmunoResearch Laboratories). The immunoreactions were developed with TMB substrates (Sigma) and stopped by the addition of 2 M sulfuric acid before reading the plate at 450 nm.
(§2) Binding of endotrophin by monoclonal antibodies was first screened by ELISA using supernatants collected from the B cell cultures (FIG. 10). ELISA titration was used to determine the binding affinity of a panel of monoclonal antibodies to endotrophin antigen (FIG. 11). Binding constants (EC₅₀) of a panel of monoclonal antibodies were estimated using four-parameter curve fitting with Prism GraphPad (Table 3).
In general, EC50 refers to the concentration needed to bring the measured effect to its halfway point. Take B2: the EC50 was 0.142 µg/mL.

Regarding B3, the EC50 was determined as 0.306 µg/mL.

As to B4, the EC50 was 0.359 µg/mL.

B5: the EC50 was 0.053 µg/mL.

B6: the EC50 came to 0.023 µg/mL.

B7: the concentration for a half-maximal effect (EC50) stood at 0.1 µg/mL.

Consider B1, for which the EC50 was 0.054 µg/mL.

For a further assay the target is unchanged. Put plainly: BLI (Octet RED96), antibody on protein A biosensors, endotrophin 0.1-200 nM, 1:1 fit. The protocol: Following a short baseline in kinetics buffer, the loaded biosensors were exposed to a series of recombinant endotrophin protein at 0.1-200 nM and background subtraction was used to correct for sensor drifting. All experiments were performed with shaking at 1,000 rpm. Background wavelength shifts were measured from reference biosensors that were loaded only with antibody. Kinetic sensorgrams for each antibody are shown in FIGS. 12A&B. ForteBio's data analysis software was used to fit the data to a 1:1 binding model to extract an association rate and dissociation rate.
In general, koff refers to a measure of how fast the partners let go of each other. The term kon denotes the rate constant with which the complex forms. As for B8, the Kd amounted to 2.03 nM, the koff turned out to be 0.000235 s⁻¹ and the kon came out at 116000 M⁻¹ s⁻¹.

In the case of B9, the Kd amounted to 1.92 nM, the koff was 0.000223 s⁻¹ and the kon amounted to 116000 M⁻¹ s⁻¹.

B10: the Kd is 2.53 nM, the koff was determined as 0.000328 s⁻¹ and the kon is 130000 M⁻¹ s⁻¹.

Regarding B11, the Kd is 2.48 nM, the koff is 0.000305 s⁻¹ and the kon is 123000 M⁻¹ s⁻¹.

For the molecule B1, the Kd was found to be 1.75 nM, the koff came out at 0.000249 s⁻¹ and the kon stood at 142000 M⁻¹ s⁻¹.

A further assay shares this target. Briefly: ELISA titration, plate coated with recombinant endotrophin, serially diluted antibody, HRP secondary antibody, OD450. As for the experimental part: as §1, §2
Background: In an ELISA, binding on a coated surface is turned into a signal by an enzyme label.
What is called EC50 (read off the curve) is the concentration needed to bring the measured effect to its halfway point. As for B2, the “EC50 (read off the curve)” value was approximately 0.1 µg/mL.

Consider B3, for which the concentration giving a half-maximal response (EC50 (read off the curve)) is approximately 0.3 µg/mL.

For B4, the “EC50 (read off the curve)” value was approximately 0.4 µg/mL.

For B5, the “EC50 (read off the curve)” value is approximately 0.06 µg/mL.

On to B6, for which the “EC50 (read off the curve)” value was approximately 0.02 µg/mL.

Take B7: the “EC50 (read off the curve)” value was approximately 0.1 µg/mL.

Turning to B1, the “EC50 (read off the curve)” value is approximately 0.06 µg/mL.

The values are drawn from patent US20220056124A1 (University of Texas, published 2022).
